# From patent publication US20240092924A1
# Molecular target: wild-type human sodium taurocholate cotransporting polypeptide (human NTCP) (human) (UniProt Q14973)
# Assay: cell-based or functional assay
# Chain of wild-type human sodium taurocholate cotransporting polypeptide (human NTCP) (human) (Q14973 whole entry): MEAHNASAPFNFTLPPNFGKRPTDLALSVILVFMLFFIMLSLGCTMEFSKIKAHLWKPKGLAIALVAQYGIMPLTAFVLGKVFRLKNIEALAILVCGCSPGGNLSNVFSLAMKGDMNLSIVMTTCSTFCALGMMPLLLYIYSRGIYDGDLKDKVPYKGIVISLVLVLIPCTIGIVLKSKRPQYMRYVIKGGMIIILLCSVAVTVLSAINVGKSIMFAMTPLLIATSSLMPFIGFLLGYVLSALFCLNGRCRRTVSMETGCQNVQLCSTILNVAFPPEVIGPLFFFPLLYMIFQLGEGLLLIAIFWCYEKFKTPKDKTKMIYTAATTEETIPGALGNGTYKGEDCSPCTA
substance,measurement,value
preS1 peptide,"[3H]-taurocholic acid uptake by HepG2-human NTCP cells, at 1000 nM (fraction of uptake remaining)",0.05
same,"inhibition of [3H]-taurocholic acid uptake by human NTCP-expressing HepG2, at 100 nM",60%
same,"inhibition of [3H]-taurocholic acid uptake by human NTCP-expressing HepG2, at 1000 nM",96%
same,"suppression of bile acid uptake into a hepatocyte cell line, at 1000 nM (FIG. 3 legend)",< 90%
